Tests used:
[1] = test system: FtsZ; conditions: […] Tris-NTA; p-value 3.86 × 10^−4; three repeats
Summary of the method: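 Cy5-labelled His-tagged FtsA (0.5–1 µM) bound to Tris-NTA-containing supported membranes, 20 min, washed; FtsA density set by Tris-NTA fraction. Time-lapse images drift-corrected; colocalization with FtsZ as Pearson's coefficient, FtsZ/FtsA ratio from linear-regression slope of intensity scatterplots.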

[2] = Membrane off-binding rate (koff) of FtsA from FRAP; parameters: Off binding rate koff: unit not given here; conditions: Fig. S4i, summary value
Summary of the method: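 Equimolar Cy3- and Cy5-labelled FtsA plus 20% unlabelled FtsA on membrane; a rectangular ROI is bleached with the 641 nm laser and recovery imaged at one or two frames per second. Diffusion coefficient and off-rate are separated by fitting the shape of the recovery profile, using the change in slope at the bleach borders.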

[3] = test system: FtsZ
Summary of the method: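 Cy5-labelled His-tagged FtsA variants (0.5–1 µM) tethered to supported membranes via Tris-NTA lipids, with Tris-NTA density set by mixing SUVs; FRET/FRAP used equimolar Cy3/Cy5 FtsA. FtsZ–FtsA co-treadmilling imaged as dual-colour videos at one frame per 2 s; dynamics and colocalization quantified by automated image subtraction analysis.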

B1: FtsA R286W-His6: FtsA R286W (1-405) with amphipathic helix replaced by C-terminal His-tag (protein)
chain: MIKATDRKLVVGLEIGTAKVAALVGEVLPDGMVNIIGVGSCPSRGMDKGGVNDLESVVKCVQRAIDQAELMADCQISSVYLALSGKHISCQNEIGMVPISEEEVTQEDVENVVHTAKSVRVRDEHRVLHVIPQEYAIDYQEGIKNPVGLSGVRMQAKVHLITCHNDMAKNIVKAVERCGLKVDQLIFAGLASSYSVLTEDERELGVCVVDIGGGTMDIAVYTGGALRHTKVIPYAGNVVTSDIAYAFGTPPSDAEAIKVRHGCALGSIVGKDESVEVPSVGGRPPWSLQRQTLAEVIEPRYTELLNLVNEEILQLQEKLRQQGVKHHLAAGIVLTGGAAQIEGLAACAQRVFHTQVRIGAPLNITGLTDYAQEPYYSTAVGLLHYGKESHLNGEAEVEKRVTASV
modifications: Cy3 or Cy5 at the N-terminus in the labelled form (sortagging as for native FtsA); left off: TwinStrep-SUMO, N-terminal, cleaved | 5xGlycine tag, N-terminal, kept | His6, C-terminal, kept
PCC His-tagged FtsA/FtsZ [1]: 0.63 ± 0.02 | Off binding rate koff ([2]; 0.10 % Tris-NTA lipids, + FtsZ): 0.0533 | Off binding rate koff ([2]; 0.10 % Tris-NTA lipids, without FtsZ): 0.0639 | Off binding rate koff ([2]; 0.40 % Tris-NTA lipids, + FtsZ): 0.0309 | Off binding rate koff ([2]; 0.40 % Tris-NTA lipids, without FtsZ): 0.0536 | Off binding rate koff ([2]; 0.60 % Tris-NTA lipids, + FtsZ): 0.0489 | Off binding rate koff ([2]; 0.60 % Tris-NTA lipids, without FtsZ): 0.0398 | Off binding rate koff ([2]; […] Tris-NTA lipids, + FtsZ): 0.0386 | Off binding rate koff ([2]; […] Tris-NTA lipids, without FtsZ): 0.0644 | co-treadmilling with FtsZ, reduction compared to the reversibly membrane-binding protein ([3]; […] Tris-NTA R286W-His6 vs 0.8 µM R286W): about 50% | PCCdiff His-tagged FtsA/FtsZ ([3]; […] Tris-NTA, p-value […] 10^−4 (vs WT-His6), 7.78 × 10^−5 (vs R286W), three repeats): 0.36 ± 0.02
